Data on eight substances can be found in patent US8859492.

Assay [1] concerns the target Recombinant human somatic ACE (sACE-1: Leu30-Leu1261, with C-terminal His tag) (human) (UniProt P12821). In words: cell-based or functional assay.
Assay [2] shares this target. In words: affinity based on the IC50 of sACE-1 inhibition (fluorogenic substrate cleavage).
Assay [3] has as its target HCV protease (hepatitis C virus). As to the kind of experiment: affinity of metallopeptide for HCV protease; method not described.

Where no end group is shown, it is not given here. [ ]: non-standard residue; d: D form. Cha = N[C@@H](CC1CCCCC1)C(=O)O Some results are limits rather than exact numbers.

Recombinant human somatic ACE (sACE-1: Leu30-Leu1261, with C-terminal His tag) (human), sequence (P12821 30-1261 limits assumed): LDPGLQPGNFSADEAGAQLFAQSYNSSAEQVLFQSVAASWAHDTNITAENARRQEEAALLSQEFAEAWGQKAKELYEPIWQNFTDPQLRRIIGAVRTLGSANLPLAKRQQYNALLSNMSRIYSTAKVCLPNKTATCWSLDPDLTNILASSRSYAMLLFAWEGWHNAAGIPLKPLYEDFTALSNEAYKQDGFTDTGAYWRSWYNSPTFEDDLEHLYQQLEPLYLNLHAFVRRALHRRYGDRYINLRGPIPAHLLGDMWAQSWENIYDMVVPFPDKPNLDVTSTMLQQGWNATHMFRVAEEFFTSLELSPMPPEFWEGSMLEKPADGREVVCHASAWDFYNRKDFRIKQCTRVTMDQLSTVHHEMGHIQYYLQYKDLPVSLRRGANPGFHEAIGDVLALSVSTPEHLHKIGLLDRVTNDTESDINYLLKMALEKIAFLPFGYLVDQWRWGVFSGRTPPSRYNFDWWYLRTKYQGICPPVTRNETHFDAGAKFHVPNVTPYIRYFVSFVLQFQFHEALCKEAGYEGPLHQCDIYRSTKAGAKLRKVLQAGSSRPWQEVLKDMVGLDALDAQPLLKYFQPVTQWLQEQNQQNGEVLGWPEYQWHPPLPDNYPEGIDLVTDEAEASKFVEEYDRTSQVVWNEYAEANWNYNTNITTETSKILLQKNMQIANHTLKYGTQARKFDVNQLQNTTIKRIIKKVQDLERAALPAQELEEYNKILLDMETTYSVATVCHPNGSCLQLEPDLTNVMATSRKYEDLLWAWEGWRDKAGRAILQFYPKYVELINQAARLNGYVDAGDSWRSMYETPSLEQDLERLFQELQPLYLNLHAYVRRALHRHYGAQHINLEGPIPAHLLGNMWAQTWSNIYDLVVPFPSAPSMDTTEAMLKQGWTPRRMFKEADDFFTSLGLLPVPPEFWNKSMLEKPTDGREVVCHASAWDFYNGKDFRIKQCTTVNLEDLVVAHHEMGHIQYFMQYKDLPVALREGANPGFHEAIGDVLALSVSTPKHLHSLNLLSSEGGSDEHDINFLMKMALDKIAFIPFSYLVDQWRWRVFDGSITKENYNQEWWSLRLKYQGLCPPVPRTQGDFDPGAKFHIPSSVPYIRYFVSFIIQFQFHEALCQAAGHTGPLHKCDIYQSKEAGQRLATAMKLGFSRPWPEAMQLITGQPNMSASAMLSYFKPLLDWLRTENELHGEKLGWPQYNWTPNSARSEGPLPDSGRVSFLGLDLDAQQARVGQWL

Consider “Co-GGH (M-chelate without lisinopril) (peptide)”, for which, in assay [1], the second order rate constant for inactivation of sACE-1, ascorbate + H2O2 was less than 333 M⁻¹ s⁻¹.
For Co-GGH-lisinopril (peptide), in assay [1], the IC50 of sACE-1 inhibition (cleavage of fluorogenic substrate) was found to be 90 nM and the second order rate constant for inactivation of sACE-1, ascorbate + H2O2 amounted to 1170 M⁻¹ s⁻¹. Also, the Ka in assay [2] worked out at 1.11e+07 M⁻¹.
On to Cu-GGH-lisinopril (peptide), for which, in assay [1], the IC50 of sACE-1 inhibition (cleavage of fluorogenic substrate) was determined as 1470 nM; the second order rate constant for inactivation of sACE-1, H2O2 amounted to 467 M⁻¹ s⁻¹; the second order rate constant for inactivation of sACE-1, ascorbate came out at 1700 M⁻¹ s⁻¹; the second order rate constant for inactivation of sACE-1, ascorbate + H2O2 turned out to be 2530 M⁻¹ s⁻¹. In assay [2], the Ka amounted to 680000 M⁻¹.
Consider GGHDEMEEC (SEQ ID NO: 71), for which the affinity in assay [3] came out at 48 µM.
Still for that read-out and setting: the result for GGHD[dE]LI[Cha]CP[Cha]DL reads 0.01 µM.
Take “Ni-GGH (M-chelate without lisinopril) (peptide)”: the second order rate constant for inactivation of sACE-1, ascorbate in assay [1] was less than 83.3 M⁻¹ s⁻¹.
For the substance Ni-GGH-lisinopril (peptide), in assay [1], the IC50 of sACE-1 inhibition (cleavage of fluorogenic substrate) worked out at 150 nM and the second order rate constant for inactivation of sACE-1, ascorbate amounted to 500 M⁻¹ s⁻¹. In addition, the Ka in assay [2] was determined as 6.67e+06 M⁻¹.
For [Cu-GGH]^1- (peptide), in assay [1], the IC50 of sACE-1 inhibition (cleavage of fluorogenic substrate) was determined as 17000 nM; the second order rate constant for inactivation of sACE-1, H2O2 is less than 33.3 M⁻¹ s⁻¹; the second order rate constant for inactivation of sACE-1, ascorbate is less than 16.7 M⁻¹ s⁻¹; the second order rate constant for inactivation of sACE-1, ascorbate + H2O2 was 167 M⁻¹ s⁻¹.
